Test results taken from IntAct's records for PubMed 31515488.

B1: Break repair meiotic recombinase recruitment factor 1 (Homo sapiens), Q0VDD7 (parent)
chain: MTKRKKLRTSGEGLCPPKPLKNPRLGDFYGDPQSSMLGCLHHPEEPEGKLGPVPSTQQHGEEPGKAVSSSPDEETGSPCRLLRQPEKEPAPLPPSQNSFGRFVPQFAKSRKTVTRKEEMKDEDRGSGAFSLETIAESSAQSPGCQLLVETLGVPLQEATELGDPTQADSARPEQSSQSPVQAVPGSGDSQPDDPPDRGTGLSASQRASQDHLSEQGADDSKPETDRVPGDGGQKEHLPSIDSEGEKPDRGAPQEGGAQRTAGAGLPGGPQEEGDGVPCTPASAPTSGPAPGLGPASWCLEPGSVAQGSPDPQQTPSRMGREGEGTHSSLGCSSLGMVVIADLSTDPTELEERALEVAGPDGQASAISPASPRRKAADGGHRRALPGCTSLTGETTGESGEAGQDGKPPGDVLVGPTASLALAPGSGESMMGAGDSGHASPDTGPCVNQKQEPGPAQEEAELGGQNLERDLEGFRVSPQASVVLEHREIADDPLQEPGAQQGIPDTTSELAGQRDHLPHSADQGTWADSLAVELDFLLDSQIQDALDASDFEAPPEQLFPSGNKPGPCWPGPSSHANGDPVAVAKAQPRTFVGIQASEASRMEDATNVVRGLIVELSNLNRLIMGTHRDLEAFKRLNYRKTKLGGKAPLPYPSKGPGNIPRGDPPWREL
partner: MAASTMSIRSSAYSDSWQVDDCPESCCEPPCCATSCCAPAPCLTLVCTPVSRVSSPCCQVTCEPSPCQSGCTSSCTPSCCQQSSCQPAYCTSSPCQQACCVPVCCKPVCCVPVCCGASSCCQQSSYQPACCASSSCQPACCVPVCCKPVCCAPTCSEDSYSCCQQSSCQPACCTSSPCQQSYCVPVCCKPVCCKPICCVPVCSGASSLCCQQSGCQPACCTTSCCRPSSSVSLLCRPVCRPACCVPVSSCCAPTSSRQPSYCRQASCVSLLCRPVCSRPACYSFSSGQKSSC
B2: Outer dense fiber protein 1 (Homo sapiens), Q14990 (parent)
chain: MAALSCLLDSVRRDIKKVDRELRQLRCIDEFSTRCLCDLYMHPYCCCDLHPYPYCLCYSKRSRSCGLCDLYPCCLCDYKLYCLRPSLRSLERKAIRAIEDEKRELAKLRRTTNRILASSCCSSNILGSVNVCGFEPDQVKVRVKDGKVCVSAERENRYDCLGSKKYSYMNICKEFSLPPCVDEKDVTYSYGLGSCVKIESPCYPCTSPCSPCSPCSPCNPCSPCNPCSPYDPCNPCYPCGSRFSCRKMIL
B3: Keratin, type II cytoskeletal 6A (Homo sapiens), P02538 (parent)
chain: MASTSTTIRSHSSSRRGFSANSARLPGVSRSGFSSVSVSRSRGSGGLGGACGGAGFGSRSLYGLGGSKRISIGGGSCAISGGYGSRAGGSYGFGGAGSGFGFGGGAGIGFGLGGGAGLAGGFGGPGFPVCPPGGIQEVTVNQSLLTPLNLQIDPTIQRVRAEEREQIKTLNNKFASFIDKVRFLEQQNKVLETKWTLLQEQGTKTVRQNLEPLFEQYINNLRRQLDSIVGERGRLDSELRGMQDLVEDFKNKYEDEINKRTAAENEFVTLKKDVDAAYMNKVELQAKADTLTDEINFLRALYDAELSQMQTHISDTSVVLSMDNNRNLDLDSIIAEVKAQYEEIAQRSRAEAESWYQTKYEELQVTAGRHGDDLRNTKQEIAEINRMIQRLRSEIDHVKKQCANLQAAIADAEQRGEMALKDAKNKLEGLEDALQKAKQDLARLLKEYQELMNVKLALDVEIATYRKLLEGEECRLNGEGVGQVNISVVQSTVSSGYGGASGVGSGLGLGGGSSYSYGSGLGVGGGFSSSSGRAIGGGLSSVGGGSSTIKYTTTSSSSRKSYKH
partner: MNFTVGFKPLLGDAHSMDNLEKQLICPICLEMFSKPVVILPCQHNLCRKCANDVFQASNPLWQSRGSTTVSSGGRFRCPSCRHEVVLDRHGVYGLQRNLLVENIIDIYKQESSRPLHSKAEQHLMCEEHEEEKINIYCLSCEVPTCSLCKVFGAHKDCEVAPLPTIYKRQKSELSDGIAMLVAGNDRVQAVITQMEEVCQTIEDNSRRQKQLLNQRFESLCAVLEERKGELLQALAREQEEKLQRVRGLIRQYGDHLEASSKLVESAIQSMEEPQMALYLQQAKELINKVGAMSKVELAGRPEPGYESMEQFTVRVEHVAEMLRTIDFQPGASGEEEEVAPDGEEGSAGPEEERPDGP
B4: Microtubule-associated tumor suppressor candidate 2 (Homo sapiens), Q5JR59-3 (parent)
chain: MGHCCCKPYNCLQCLDKTNESALVKEKELSIELANIRDEVAFHTAKCEKLQKEKEELERRFEDEVKRLGWQQQAELQELEERLQLQFEAEMARLQEEHGDQLLSIRCQHQEQVEDLTASHDAALLEMENNHTVAITILQDDHDHKVQELMSTHELEKKELEENFEKLRLSLQDQVDTLTFQSQSLRDRARRFEEALRKNTEEQLEIALAPYQHLEEDMKSLKQVLEMKNQQIHEQEKKILELEKLAEKNIILEEKIQVLQQQNEDLKARIDQNTVVTRQLSEENANLQEYVEKETQEKKRLSRTNEELLWKLQTGDPTSPIKLSPTSPVYRGSSSGPSSPARVSTTPR
partner: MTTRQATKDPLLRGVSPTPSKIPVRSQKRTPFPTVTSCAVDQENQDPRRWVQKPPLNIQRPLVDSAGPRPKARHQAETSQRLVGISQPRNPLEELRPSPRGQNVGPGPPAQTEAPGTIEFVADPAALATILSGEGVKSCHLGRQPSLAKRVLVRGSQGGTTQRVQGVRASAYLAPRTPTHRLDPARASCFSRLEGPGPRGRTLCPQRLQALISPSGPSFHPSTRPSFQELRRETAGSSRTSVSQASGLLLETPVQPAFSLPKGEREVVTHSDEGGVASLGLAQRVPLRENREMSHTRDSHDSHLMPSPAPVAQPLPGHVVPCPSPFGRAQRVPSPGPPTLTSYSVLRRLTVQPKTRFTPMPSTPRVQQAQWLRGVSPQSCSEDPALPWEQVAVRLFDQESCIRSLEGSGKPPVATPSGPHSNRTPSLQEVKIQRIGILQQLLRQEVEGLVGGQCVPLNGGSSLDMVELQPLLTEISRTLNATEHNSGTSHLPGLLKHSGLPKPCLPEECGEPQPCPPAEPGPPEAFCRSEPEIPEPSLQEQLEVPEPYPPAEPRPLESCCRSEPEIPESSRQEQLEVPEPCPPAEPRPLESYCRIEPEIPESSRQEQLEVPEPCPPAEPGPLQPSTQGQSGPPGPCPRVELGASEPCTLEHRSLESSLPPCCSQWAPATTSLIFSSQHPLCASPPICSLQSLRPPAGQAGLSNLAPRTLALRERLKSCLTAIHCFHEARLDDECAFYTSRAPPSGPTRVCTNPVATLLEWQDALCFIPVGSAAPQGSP
B5: Ligand of Numb protein X 2 (Homo sapiens), Q8N448 (parent)
chain: MGTTSDEMVSVEQTSSSSLNPLCFECGQQHWTRENHLYNYQNEVDDDLVCHICLQPLLQPLDTPCGHTFCYKCLRNFLQEKDFCPLDRKRLHFKLCKKSSILVHKLLDKLLVLCPFSSVCKDVMQRCDLEAHLKNRCPGASHRRVALERRKTSRTQAEIENENGPTLLDPAGTLSPEADCLGTGAVPVERHLTSASLSTWSEEPGLDNPAFEESAGADTTQQPLSLPEGEITTIEIHRSNPYIQLGISIVGGNETPLINIVIQEVYRDGVIARDGRLLAGDQILQVNNYNISNVSHNYARAVLSQPCNTLHLTVLRERRFGNRAHNHSDSNSPREEIFQVALHKRDSGEQLGIKLVRRTDEPGVFILDLLEGGLAAQDGRLSSNDRVLAINGHDLKYGTPELAAQIIQASGERVNLTIARPGKPQPGNTIREAGNHSSSSQHHTPPPYYSRPSSHKDLTQCVTCQEKHITVKKEPHESLGMTVAGGRGSKSGELPIFVTSVPPHGCLARDGRIKRGDVLLNINGIDLTNLSHSEAVAMLKASAASPAVALKALEVQIVEEATQNAEEQPSTFSENEYDASWSPSWVMWLGLPSTLHSCHDIVLRRSYLGSWGFSIVGGYEENHTNQPFFIKTIVLGTPAYYDGRLKCGDMIVAVNGLSTVGMSHSALVPMLKEQRNKVTLTVICWPGSLV
partner: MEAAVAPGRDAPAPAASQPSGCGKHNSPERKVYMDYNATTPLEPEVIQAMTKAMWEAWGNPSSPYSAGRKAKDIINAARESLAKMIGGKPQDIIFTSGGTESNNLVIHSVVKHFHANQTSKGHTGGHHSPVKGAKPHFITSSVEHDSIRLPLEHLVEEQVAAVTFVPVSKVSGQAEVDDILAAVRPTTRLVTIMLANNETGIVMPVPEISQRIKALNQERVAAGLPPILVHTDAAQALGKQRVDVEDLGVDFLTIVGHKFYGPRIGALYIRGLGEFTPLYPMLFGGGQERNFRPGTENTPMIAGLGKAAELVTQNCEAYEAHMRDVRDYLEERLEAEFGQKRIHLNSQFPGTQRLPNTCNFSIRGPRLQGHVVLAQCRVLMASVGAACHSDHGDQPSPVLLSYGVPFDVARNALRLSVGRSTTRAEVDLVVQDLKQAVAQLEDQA
B6: Hematopoietic lineage cell-specific protein (Homo sapiens), P14317 (parent)
chain: MWKSVVGHDVSVSVETQGDDWDTDPDFVNDISEKEQRWGAKTIEGSGRTEHINIHQLRNKVSEEHDVLRKKEMESGPKASHGYGGRFGVERDRMDKSAVGHEYVAEVEKHSSQTDAAKGFGGKYGVERDRADKSAVGFDYKGEVEKHTSQKDYSRGFGGRYGVEKDKWDKAALGYDYKGETEKHESQRDYAKGFGGQYGIQKDRVDKSAVGFNEMEAPTTAYKKTTPIEAASSGTRGLKAKFESMAEEKRKREEEEKAQQVARRQQERKAVTKRSPEAPQPVIAMEEPAVPAPLPKKISSEAWPPVGTPPSSESEPVRTSREHPVPLLPIRQTLPEDNEEPPALPPRTLEGLQVEEEPVYEAEPEPEPEPEPEPENDYEDVEEMDRHEQEDEPEGDYEEVLEPEDSSFSSALAGSSGCPAGAGAGAVALGISAVAVYDYQGEGSDELSFDPDDVITDIEMVDEGWWRGRCHGHFGLFPANYVKLLE
partner: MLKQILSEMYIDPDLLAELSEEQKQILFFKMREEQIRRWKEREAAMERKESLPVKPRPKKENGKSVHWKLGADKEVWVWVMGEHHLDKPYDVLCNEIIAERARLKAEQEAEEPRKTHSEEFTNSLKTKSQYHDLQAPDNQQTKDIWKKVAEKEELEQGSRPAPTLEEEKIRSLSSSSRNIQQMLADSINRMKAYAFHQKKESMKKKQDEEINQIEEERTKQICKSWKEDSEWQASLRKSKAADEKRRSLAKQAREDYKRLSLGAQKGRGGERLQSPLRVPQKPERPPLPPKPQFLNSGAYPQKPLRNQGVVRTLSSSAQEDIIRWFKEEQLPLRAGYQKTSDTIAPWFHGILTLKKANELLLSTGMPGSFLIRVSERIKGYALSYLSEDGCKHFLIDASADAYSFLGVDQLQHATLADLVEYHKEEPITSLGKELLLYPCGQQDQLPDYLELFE

Variants of: B1
Conditions: with kr109_human KRTAP10-9, P60411

| Variant | effect of a mutation on the interaction |
| --- | --- |
| Q500R | with no effect |

Variants of: B2
Conditions: with mtus2_human MTUS2, Q5JR59
mtus2_human MTUS2, Q5JR59, sequence (Q5JR59 whole entry): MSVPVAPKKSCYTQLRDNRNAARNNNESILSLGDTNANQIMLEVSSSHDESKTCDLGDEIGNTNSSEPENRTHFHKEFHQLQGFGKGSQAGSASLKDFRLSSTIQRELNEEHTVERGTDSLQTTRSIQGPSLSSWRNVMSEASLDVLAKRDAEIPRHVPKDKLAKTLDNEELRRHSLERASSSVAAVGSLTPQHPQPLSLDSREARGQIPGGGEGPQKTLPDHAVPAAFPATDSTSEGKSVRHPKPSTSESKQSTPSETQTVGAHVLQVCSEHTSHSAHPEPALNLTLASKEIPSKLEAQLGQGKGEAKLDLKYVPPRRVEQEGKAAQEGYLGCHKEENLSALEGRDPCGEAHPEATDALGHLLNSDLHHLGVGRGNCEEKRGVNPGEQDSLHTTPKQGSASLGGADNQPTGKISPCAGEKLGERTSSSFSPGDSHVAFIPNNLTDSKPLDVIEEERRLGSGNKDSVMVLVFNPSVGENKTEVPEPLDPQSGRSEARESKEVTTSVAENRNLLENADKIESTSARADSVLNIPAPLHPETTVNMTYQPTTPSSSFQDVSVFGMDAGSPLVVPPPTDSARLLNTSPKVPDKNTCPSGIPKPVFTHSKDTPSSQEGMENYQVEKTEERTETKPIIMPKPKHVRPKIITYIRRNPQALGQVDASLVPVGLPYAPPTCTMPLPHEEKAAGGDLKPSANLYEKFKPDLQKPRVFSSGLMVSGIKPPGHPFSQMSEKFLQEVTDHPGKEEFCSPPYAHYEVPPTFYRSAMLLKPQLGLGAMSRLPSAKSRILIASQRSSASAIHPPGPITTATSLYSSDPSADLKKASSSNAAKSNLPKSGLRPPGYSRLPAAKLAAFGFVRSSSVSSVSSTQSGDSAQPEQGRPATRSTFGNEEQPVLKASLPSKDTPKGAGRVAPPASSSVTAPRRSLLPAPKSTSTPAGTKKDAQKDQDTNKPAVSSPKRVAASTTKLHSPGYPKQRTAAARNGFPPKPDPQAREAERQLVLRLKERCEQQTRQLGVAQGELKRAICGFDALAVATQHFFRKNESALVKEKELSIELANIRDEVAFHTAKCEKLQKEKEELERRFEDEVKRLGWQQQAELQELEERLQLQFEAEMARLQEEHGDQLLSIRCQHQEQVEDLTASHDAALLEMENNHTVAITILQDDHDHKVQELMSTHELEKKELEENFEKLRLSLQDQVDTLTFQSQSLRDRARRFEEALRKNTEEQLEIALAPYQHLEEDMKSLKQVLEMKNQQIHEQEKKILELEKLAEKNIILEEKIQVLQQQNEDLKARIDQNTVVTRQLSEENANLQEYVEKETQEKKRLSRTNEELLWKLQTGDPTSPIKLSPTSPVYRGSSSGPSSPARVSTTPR

| Variant | effect of a mutation on the interaction |
| --- | --- |
| S89I | with no effect |
| K17N | with no effect |

Variants of: B3
Conditions: with tri54_human TRIM54, Q9BYV2

| Variant | effect of a mutation on the interaction |
| --- | --- |
| V523F | with no effect |
| R559G | with no effect |
| A335T | with no effect |
| L210M | with no effect |
| R415H | with no effect |
| T552S | with no effect |

Variants of: B4
Conditions: with troap_human TROAP

| Variant | effect of a mutation on the interaction |
| --- | --- |
| A89V | with no effect |

Variants of: B5
Conditions: with scly_human SCLY

| Variant | effect of a mutation on the interaction |
| --- | --- |
| S198P | with no effect |

Variants of: B6
Conditions: with sh24a_human SH2D4A

| Variant | effect of a mutation on the interaction |
| --- | --- |
| W21C | with no effect |
| E361K | with no effect |
